The values that follow come from the RNAGym collection of RNA variant scans (doi:10.1093/nar/gkz1192).

First the molecules themselves.
B1: CPEB3 Ribozyme (parent)
chain: UAACAGGGGGCCACAGCAGAAGCGUUCACGUCGCAGCCCCUGUCAGAUUCUGGUGAAUCUGCGAAUUCUGCUGUAUAUCUC

This data set covers variants of B1. Description: self-cleavage, relative activity (ratio to wild type); higher = more cleavage; in vitro, sequencing. Summed up:
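After error-prone PCR and barcoding, CPEB3 ribozyme mutant libraries were transcribed with T7 RNA polymerase at 37°C for 5 hours, then given 15 min with DNase I before an EDTA stop, and they cleaved during both steps. Reverse transcription with template switching preceded Illumina sequencing. Relative activity divides a variant's cleaved/total read fraction by the unmutated ribozyme's. At least 5 reads were required per variant, and three batches were averaged.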
Consider UAACAGGGGGCCACAGCAGAAGCGUUCACGUCGCAGCCCCAGUCAGAUUCUGGUGAAUCUGCGAAUUCUGCUUUAUAUCUC [U41A G73U], for which the self-cleavage was determined as 0.42.

In the case of UAACAGGGGGCCACAGCAGAAGCGUUCACGUCGCAGCCCCAGUCAGAUUCUGGUGAAUCUGCGAAUUCUGCUCUAUAUCUC [U41A G73C], the self-cleavage worked out at 0.17.

Take UAACAGGGGGCCACAGCAGAAGCGUUCACGUCGCAGCCCCAGUCAGAUUCUGGUGAAUCUGCGAAUUCUGCUAUAUAUCUC [U41A G73A]: the self-cleavage came out at 0.45.

UAACAGGGGGCCACAGCAGAAGCGUUCACGUCGCAGCCCCACUCAGAUUCUGGUGAAUCUGCGAAUUCUGCUGUAUAUCUC [U41A G42C]: the self-cleavage is 0.21.

Turning to UAACAGGGGGCCACAGCAGAAGCGUUCACGUCGCAGCCCCAAUCAGAUUCUGGUGAAUCUGCGAAUUCUGCUGUAUAUCUC [U41A G42A], the self-cleavage turned out to be 0.37.

UAACAGGGGGCCACAGCAGAAGCGUUCACGUCGCAGCCCCAUUCAGAUUCUGGUGAAUCUGCGAAUUCUGCUGUAUAUCUC [U41A G42U]: the self-cleavage came out at 0.27.

On to UAACAGGGGGCCACAGCAGAAGCGUUCACGUCGCAGCCCCAGUCAGAUUCUGGUAAAUCUGCGAAUUCUGCUGUAUAUCUC [U41A G55A], for which the self-cleavage turned out to be 0.19.

For the variant UAACAGGGGGCCACAGCAGAAGCGUUCACGUCGCAGCCCCAGUCAGAUUCUGGUUAAUCUGCGAAUUCUGCUGUAUAUCUC [U41A G55U], the self-cleavage was determined as 0.2.

UAACAGGGGGCCACAGCAGAAGCGUUCACGUCGCAGCCCCAGUCAGAUUCUGGUCAAUCUGCGAAUUCUGCUGUAUAUCUC [U41A G55C]: the self-cleavage is 0.34.

For the variant UAACAGGGGGCCACAGCAGAAGCGUUCACGUCGCAGCCCCAGUCAGAUUCGGGUGAAUCUGCGAAUUCUGCUGUAUAUCUC [U41A U51G], the self-cleavage is 0.42.

Regarding UAACAGGGGGCCACAGCAGAAGCGUUCACGUCGCAGCCCCAGUCAGAUUCAGGUGAAUCUGCGAAUUCUGCUGUAUAUCUC [U41A U51A], the self-cleavage is 0.36.

Regarding UAACAGGGGGCCACAGCAGAAGCGUUCACGUCGCAGCCCCAGUCAGAUUCCGGUGAAUCUGCGAAUUCUGCUGUAUAUCUC [U41A U51C], the self-cleavage worked out at 0.31.

For UAACAGGGGGCCACAGCAGAAGCGUUCACGUCGCAGCCCCAGUCAGAUUCUGGUGAAGCUGCGAAUUCUGCUGUAUAUCUC [U41A U58G], the self-cleavage came to 0.23.

For UAACAGGGGGCCACAGCAGAAGCGUUCACGUCGCAGCCCCAGUCAGAUUCUGGUGAAACUGCGAAUUCUGCUGUAUAUCUC [U41A U58A], the self-cleavage worked out at 0.22.

As for UAACAGGGGGCCACAGCAGAAGCGUUCACGUCGCAGCCCCAGUCAGAUUCUGGUGAACCUGCGAAUUCUGCUGUAUAUCUC [U41A U58C], the self-cleavage amounted to 0.23.

As for UAACAGGGGGCCACAGCAGAAGCGUUCACGUCGCAGCCCCAGUCAGAUUCUGGUGAAUCUGCGAAUUAUGCUGUAUAUCUC [U41A C68A], the self-cleavage was 0.17.

As to UAACAGGGGGCCACAGCAGAAGCGUUCACGUCGCAGCCCCAGUCAGAUUCUGGUGAAUCUGCGAAGUCUGCUGUAUAUCUC [U41A U66G], the self-cleavage was found to be 0.18.

As for UAACAGGGGGCCACAGCAGAAGCGUUCACGUCGCAGCCCCAGUCAGAUUCUGGUGAAUCUGCGAAAUCUGCUGUAUAUCUC [U41A U66A], the self-cleavage turned out to be 0.27.

UAACAGGGGGCCACAGCAGAAGCGUUCACGUCGCAGCCCCAGUCAGAUUCUGGUGAAUCUGCGAACUCUGCUGUAUAUCUC [U41A U66C]: the self-cleavage is 0.23.

Regarding UAACAGGGGGCCACAGCAGAAGCGUUCACGUCGCAGCCCCAGUCAGAUUCUGGGGAAUCUGCGAAUUCUGCUGUAUAUCUC [U41A U54G], the self-cleavage turned out to be 0.22.

As for UAACAGGGGGCCACAGCAGAAGCGUUCACGUCGCAGCCCCAGUCAGAUUCUGGAGAAUCUGCGAAUUCUGCUGUAUAUCUC [U41A U54A], the self-cleavage turned out to be 0.27.

As to UAACAGGGGGCCACAGCAGAAGCGUUCACGUCGCAGCCCCAGUCAGAUUCUGGCGAAUCUGCGAAUUCUGCUGUAUAUCUC [U41A U54C], the self-cleavage came out at 0.29.

In the case of UAACAGGGGGCCACAGCAGAAGCGUUCACGUCGCAGCCCCAGUCAGAUUCUGGUGAAUCUGCGAAUUCUGCUGUAAAUCUC [U41A U76A], the self-cleavage is 0.16.

UAACAGGGGGCCACAGCAGAAGCGUUCACGUCGCAGCCCCAGUCAGAUUCUGGUGAAUCUGCGAAUUCUGCUGUACAUCUC [U41A U76C]: the self-cleavage amounted to 0.27.

Turning to UAACAGGGGGCCACAGCAGAAGCGUUCACGUCGCAGCCCCAGUCAGAUCCUGGUGAAUCUGCGAAUUCUGCUGUAUAUCUC [U41A U49C], the self-cleavage stood at 0.23.

For the variant UAACAGGGGGCCACAGCAGAAGCGUUCACGUCGCAGCCCCAGUCAGAUACUGGUGAAUCUGCGAAUUCUGCUGUAUAUCUC [U41A U49A], the self-cleavage came to 0.23.

As for UAACAGGGGGCCACAGCAGAAGCGUUCACGUCGCAGCCCCAGUCAGAUUCUGGUGAAUCUGCGAAUUCUGCGGUAUAUCUC [U41A U72G], the self-cleavage is 0.21.

For UAACAGGGGGCCACAGCAGAAGCGUUCACGUCGCAGCCCCAGUCAGAUUCUGGUGAAUCUGCGAAUUCUGCAGUAUAUCUC [U41A U72A], the self-cleavage came to 0.23.

In the case of UAACAGGGGGCCACAGCAGAAGCGUUCACGUCGCAGCCCCAGUCAGAUUCUGGUGAAUCUGCGAAUUCUGCCGUAUAUCUC [U41A U72C], the self-cleavage worked out at 0.28.

For UAACAGGGGGCCACAGCAGAAGCGUUCACGUCGCAGCCCCAGUCAGAUUCUAGUGAAUCUGCGAAUUCUGCUGUAUAUCUC [U41A G52A], the self-cleavage was determined as 0.19.

As for UAACAGGGGGCCACAGCAGAAGCGUUCACGUCGCAGCCCCAGUCAGAUUCUCGUGAAUCUGCGAAUUCUGCUGUAUAUCUC [U41A G52C], the self-cleavage came out at 0.67.

Regarding UAACAGGGGGCCACAGCAGAAGCGUUCACGUCGCAGCCCCAGUCAGAUUCUUGUGAAUCUGCGAAUUCUGCUGUAUAUCUC [U41A G52U], the self-cleavage was found to be 0.21.

With UAACAGGGGGCCACAGCAGAAGCGUUCACGUCGCAGCCCCAGUCAUAUUCUGGUGAAUCUGCGAAUUCUGCUGUAUAUCUC [U41A G46U], the self-cleavage was found to be 0.29.

Consider UAACAGGGGGCCACAGCAGAAGCGUUCACGUCGCAGCCCCAGUCAAAUUCUGGUGAAUCUGCGAAUUCUGCUGUAUAUCUC [U41A G46A], for which the self-cleavage came out at 0.3.
